B1: COL1A2 promoter binding probe (dsDNA)
DNA 1: CCCCCCATTCGCTCCCTCCTCTGCGCCCCCGCAGGCTC
DNA 2: GAGCCTGCGGGGGCGCAGAGGAGGGAGCGAATGGGGGG
B2: COL1A2 promoter non-binding probe (dsDNA)
DNA 1: CCCCGGATTCGCTCCCTCCTCTGCGCCCCCGCAGGCTC
DNA 2: GAGCCTGCGGGGGCGCAGAGGAGGGAGCGAATCCGGGG

Biological target: YB-1 (DNA-binding protein) (Homo sapiens, UniProt P67809 SEQ:1-317)
Test: EMSA; 200 ng protein, 1 ug poly dI-dC, on ice 30 min
Conditions: tags: His tag (pET-28a(+), Ni-NTA purified from E. coli BL21-GOLD(DE3)); label: 32P 5' end
Protocol: An oligonucleotide consisting of the nucleotide sequence represented by SEQ ID No:.3 was mixed with an oligonucleotide consisting of the nucleotide sequence complementary with its nucleotide sequence, and this oligonucleotide mixture was boiled for 5 minutes and then allowed to stand at room temperature. Then this oligonucleotide mixture in an amount corresponding to 10 pmol DNA, 2 μl of a T4 kinase buffer, 1 μl of T4 kinase and 6 μl of γ-³²P-ATP(>3000 Ci/mmol, DAIICHI KAGAKU YAKUHIN, Catalog No.NEG-502A) were mixed with distilled water to make the total volume 20 μl, which was then kept at 37° C. for 1 hour. This mixture was loaded onto Quick Spin Column G-25 (Boehringer, Catalog No.1273949). This column was centrifuged (2,500 rpm, 5 minutes), and the effluent was recovered. The effluent thus recovered was subjected to a 10% polyacrylamide gel electrophoresis to recover a gel portion containing a ³²P-labelled double-stranded DNA. the gel portion thus recovered was combined with distilled water, kept at 37° C. over one whole day and night, and extracted to obtain the ³²P-labelled DNA (hereinafter referred to as the binding probe). Thus the binding probe was prepared. […]

Sequence of YB-1 (DNA-binding protein) (P67809 other isoform, or with tags, fused parts or gaps): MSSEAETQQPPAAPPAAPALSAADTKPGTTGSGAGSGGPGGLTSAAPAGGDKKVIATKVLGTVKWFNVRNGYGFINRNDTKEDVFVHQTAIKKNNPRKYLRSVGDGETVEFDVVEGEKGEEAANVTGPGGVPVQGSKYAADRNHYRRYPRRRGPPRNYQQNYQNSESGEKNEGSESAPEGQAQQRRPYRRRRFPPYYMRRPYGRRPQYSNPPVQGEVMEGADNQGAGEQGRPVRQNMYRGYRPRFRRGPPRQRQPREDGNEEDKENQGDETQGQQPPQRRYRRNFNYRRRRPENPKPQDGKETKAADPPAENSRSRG

| Binder | binding result |
| --- | --- |
| B1 | binds |
| B2 | no binding |

Reference: patent publication US20020091083, “DNA-binding protein YB-1-containing collagen accumulation inhibitors” (Sumitomo Chemical Company, Ltd., published 2002)
